The chains are these.
T1: Caspase-1 (Homo sapiens, UniProt P29466)
T1 construct: purchased BioVision
T1 sequence (P29466 120-297 limits assumed): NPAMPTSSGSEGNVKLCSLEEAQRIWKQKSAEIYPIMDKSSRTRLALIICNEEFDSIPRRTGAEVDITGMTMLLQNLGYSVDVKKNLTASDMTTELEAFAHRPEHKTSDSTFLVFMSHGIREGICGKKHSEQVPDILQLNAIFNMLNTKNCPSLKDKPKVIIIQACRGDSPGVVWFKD
T1 sequence (P29466 317-404 limits assumed): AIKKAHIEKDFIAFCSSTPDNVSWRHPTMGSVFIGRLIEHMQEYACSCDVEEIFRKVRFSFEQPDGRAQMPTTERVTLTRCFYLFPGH

B1: ANAPC1 1-90: 90-aa human peptidome tile displayed on T7 phage (protein, UniProt Q9H1A4 1-90, looked up, fragment)
chain: MSNFYEERTTMIAARDLQEFVPFGRDHCKHHPNALNLQLRQLQPASELWSSDGAAGLVGSLQEVTIHEKQKESWQLRKGVSEIGEDVDYD
modifications: displayed on T7 phage
B2: HUWE1 2251-2340: 90-aa human peptidome tile of HUWE1 displayed on T7 phage (protein, UniProt Q7Z6Z7 2251-2340, looked up, fragment)
chain: ETLSRIVNQPSSLFGSKSASSKNKSEQDAQGASQDSSSNQQDPGEPGEAEVQEEDHDVTQTEVADGDIMDGEAETDSVVIAGQPEVLSSQ
modifications: displayed on T7 phage
B3: LYST 1171-1260: 90-aa human peptidome tile displayed on T7 phage (protein, UniProt Q99698 1171-1260, looked up, fragment)
chain: NYSADFEHNDAMTEKSHQSAEELSSQPGDFSEEAEDSQCCSFKLLVEEEGYEADSESNPEDGETQDDGVDLKSETEGFSASSSPNDLLEN
modifications: displayed on T7 phage
B4: Znf462 1-90: 90-aa human peptidome tile displayed on T7 phage (protein, UniProt Q96JM2 1-90, looked up, fragment)
chain: MEVLQCDGCDFRAPSYEDLKAHIQDVHTAFLQPTDVAEDNVNELRCGSVNASNQTEVEFSSIKDEFAIAEDLSGQNATSLGTGGYYGHSP
modifications: displayed on T7 phage
B5: Efs 181-270: 90-aa human peptidome tile displayed on T7 phage (protein, UniProt O43281 181-270, looked up, fragment)
chain: PGEDDAPYDVPLTPKPPAELEPDLEWEGGREPGPPIYAAPSNLKRASALLNLYEAPEELLADGEGGGTDEGIYDVPLLGPEAPPSPEPPG
modifications: displayed on T7 phage
B6: HUWE1 2341-2430: 90-aa human peptidome tile of HUWE1 displayed on T7 phage (protein, UniProt Q7Z6Z7 2341-2430, looked up, fragment)
chain: EMQVENELEDLIDELLERDGGSGNSTIIVSRSGEDESQEDVLMDEAPSNLSQASTLQANREDSMNILDPEDEEEHTQEEDSSGSNEDEDD
modifications: displayed on T7 phage
B7: MAP3K14 496-585: 90-aa human peptidome tile displayed on T7 phage (protein, UniProt Q99558 496-585, looked up, fragment)
chain: LGQALEGLEYLHSRRILHGDVKADNVLLSSDGSHAALCDFGHAVCLQPDGLGKSLLTGDYIPGTETHMAPEVVLGRSCDAKVDVWSSCCM
modifications: displayed on T7 phage
B8: ZNF469 811-900: 90-aa human peptidome tile displayed on T7 phage (protein, UniProt Q96JG9 811-900, looked up, fragment)
chain: PLRTGFLPSLAATPFPLPASDLDMEDDAKLDSLITEALNGMEYQSDNPEIDSSFIDVFADEEPSGPRGPSSGHPLKSKAGVTPESKAPPP
modifications: displayed on T7 phage
B9: HUWE1 2296-2485: 90-aa human peptidome tile of HUWE1 displayed on T7 phage; position as printed (protein, UniProt Q7Z6Z7 2296-2485, looked up, fragment)
chain: PGEAEVQEEDHDVTQTEVADGDIMDGEAETDSVVIAGQPEVLSSQEMQVENELEDLIDELLERDGGSGNSTIIVSRSGEDESQEDVLMDEAPSNLSQASTLQANREDSMNILDPEDEEEHTQEEDSSGSNEDEDDSQDEEEEEEEDEEDDQEDDEGEEGDEDDDDDGSEMELDEDYPDMNASPLVRFERF
modifications: T7 phage display
notes: position as printed
B10: BSN 631-720: 90-aa human peptidome tile displayed on T7 phage (protein, UniProt Q9UPA5 631-720, looked up, fragment)
chain: ATPKVKSGVRRAEPATPVVKAVPEAPKGGEAEDLVGKPYSQDASRSPQSLSDTGYSSDGISSSQSEITGVVQQEVEQLDSAGVTGPHPPS
modifications: displayed on T7 phage
B11: UHRF1BP1L 991-1080: 90-aa human peptidome tile displayed on T7 phage (protein, UniProt A0JNW5 991-1080, looked up, fragment)
chain: EIGSETSDKKDSFYTDSSSILNYREDSNILSFDSDGNQNILSSTLTSKGNETIESIFKAEDLLPEAASLSENLDISKEETPPVRTLKSQS
modifications: displayed on T7 phage
B12: hoxa2 271-360: 90-aa human peptidome tile displayed on T7 phage (protein, UniProt O43364 271-360, looked up, fragment)
chain: SFPVSPLTSNEKNLKHFQHQSPTVPNCLSTMGQNCGAGLNNDSPEALEVPSLQDFSVFSTDSCLQLSDAVSPSLPGSLDSPVDISADSLD
modifications: displayed on T7 phage
B13: Hyls1 1-90: 90-aa human peptidome tile displayed on T7 phage (protein, UniProt Q96M11 1-90, looked up, fragment)
chain: MEELLPDGQIWANMDPEERMLAAATAFTHICAGQGEGDVRREAQSIQYDPYSKASVAPGKRPALPVQLQYPHVESNVPSETVSEASQRLR
modifications: displayed on T7 phage
B14: HMGXB4 226-315: 90-aa human peptidome tile displayed on T7 phage (protein, UniProt Q9UGU5 226-315, looked up, fragment)
chain: KSARDEQGALLLGHELQSFLKTARKKHKSSSDAHSSPGPEGCGSDASQFAESHSANLDLSGLEPILVESDSSSGGELEAGELVIDDSYRE
modifications: displayed on T7 phage
B15: TNS3 451-540: 90-aa human peptidome tile displayed on T7 phage (protein, UniProt Q68CZ2 451-540, looked up, fragment)
chain: YSGTRHVVPAQVHVNGDAALKDRETDILDDEMPHHDLHSVDSLGTLSSSEGPQSAHLGPFTCHKSSQNSLLSDGFGSNVGEDPQGTLVPD
modifications: displayed on T7 phage
B16: AIRLANSTASVSRGSMQELDMLAGLRRSHAPQSRSSLNAKPHDSLDLNCDSRDFVAAIISIPTPPANTPDESQPSSPGGGGRAGSTLRNS (protein, listed as Homo sapiens)
chain: AIRLANSTASVSRGSMQELDMLAGLRRSHAPQSRSSLNAKPHDSLDLNCDSRDFVAAIISIPTPPANTPDESQPSSPGGGGRAGSTLRNS

The target of one experiment is T1, Caspase-1. The experiment is described as follows: SEPARATE assay: human peptidome library digest with Caspase-1. The note with it: top 20 enriched peptides, human library (90-aa tiles); normalized read counts digest vs mock digest. The experiment is classed as biochemical. The procedure:
(§1) Streptavidin-coupled magnetic beads (Dynabeads M-280 Streptavidin, ThermoFisher Scientific) were washed (TBS, pH 7.4, 0.01% NP40) and resuspended in binding buffer (TBS, pH 7.4, 0.001% NP40) containing 2E9 plaque forming units per 10 μl of bead slurry. End-over-end mixing at room temperature was performed for one hour. Phage-coated beads were washed three times with wash buffer and transferred into two protein LoBind Eppendorf tubes blocked with TBS, pH 7.4 containing 1% BSA.
(§2) Digestion occurred overnight at room temperature with end-over-end rotation. […] To remove any residual biotinylated phage that may have been nonspecifically released, the 150 μl supernatant of the quenched digest reaction is then incubated with a fresh 10 μl of slurry volume M280 streptavidin beads (pre-washed three times with wash buffer) in a LoBind Eppendorf tube blocked with TBS, pH 7.4 containing 1% BSA at room temperature for one hour with end-over-end rotation.
(§3) 10 μl slurry volume of protein G magnetic dynabeads were washed in buffer (TBS, pH 7.4, 0.01% NP40) and then resuspended in 50 μl TBS, pH 7.4, 0.01% NP40 containing 4 μg of M2 FLAG antibody for thirty minutes at room temperature with end-over-end rotation. The 150 μl quenched digest reaction is added to the 10 μl FLAG-coated Protein G beads and incubated for 60 minutes at room temperature with end-over-end rotation to capture phage particles released at the protease digest step. Beads are rinsed once with 100 μl wash buffer and stored at −80° C. until PCR amplification.
(§4) Library PCR preparation, high-throughput DNA sequencing, and peptide read count data generation was performed as described previously.^44 Briefly, library peptide inserts are amplified by resuspending 10 μl of FLAG-coated Protein G beads in PCR1 master mix containing the T7-Pep2_PCR1_F forward primer ([…]) (SEQ ID NO:3) and a T7-SEPARATE vector specific reverse primer ([…]) (SEQ ID NO:4), which includes an adapter sequence for sample-specific barcoding and Illumina P7 adapter incorporation during a subsequent PCR2 reaction. The PCR2 amplicons are pooled and sequenced using an Illumina NextSeq instrument in standard output mode to obtain single-end 50 nucleotide reads. Dual indexed sample demultiplexing and clonal read count determination were performed using exact sequence matching. […] To calculate the normalization factor, 100 peptides were randomly selected from the mock digest conditions with a read count ranging between 10 and 40. The median read count value for these 100 peptides is calculated for each sample. The random peptide selection and median calculation is performed 20 times and the average of the 20 median values is calculated for each sample. Finally, the normalization factor is calculated by dividing the average median value for each sample by that for one of the mock digest conditions. Read counts are then converted to normalized read counts by dividing each sample's read count values by the normalization factor. Fold enrichments are calculated for each peptide by dividing their normalized read counts in the digest condition by the normalized read counts in the mock digest condition. The fold enrichments can be visualized in an MA plot by transforming the normalized read count data into a log ratio (M, on the y-axis) and a mean average (A, on the x-axis) between the digest and mock digest conditions.
B1 yielded a Caspase1 fold change of 16.35 fold.
Molecule B2 had a Caspase1 fold change of 17.58 fold.
The same measure, in the same setting: with B3 the figure was 21.04 fold; with B4, 19.1 fold.
Still for that read-out and setting: next, B5: 21.06 fold; B6: 16.55 fold; B7: 16.5 fold.
Still for that read-out and setting: next, B8: 16.76 fold; B9: 22.71 fold.
For the molecule B10, the Caspase1 fold change is listed as 18.78 fold.
On the same count and under the same terms, with B11 the figure was 16.39 fold; with B12, 17.06 fold; with B13, 19.74 fold.
Molecule B14 yielded a Caspase1 fold change of 16.49 fold.
Still for that read-out and setting: with B15 the figure was 18.67 fold.

The target in another experiment is T2, ADAM17 (Homo sapiens, UniProt P78536).
T2 construct: purchased RnD Systems
T2 sequence (P78536 215-824): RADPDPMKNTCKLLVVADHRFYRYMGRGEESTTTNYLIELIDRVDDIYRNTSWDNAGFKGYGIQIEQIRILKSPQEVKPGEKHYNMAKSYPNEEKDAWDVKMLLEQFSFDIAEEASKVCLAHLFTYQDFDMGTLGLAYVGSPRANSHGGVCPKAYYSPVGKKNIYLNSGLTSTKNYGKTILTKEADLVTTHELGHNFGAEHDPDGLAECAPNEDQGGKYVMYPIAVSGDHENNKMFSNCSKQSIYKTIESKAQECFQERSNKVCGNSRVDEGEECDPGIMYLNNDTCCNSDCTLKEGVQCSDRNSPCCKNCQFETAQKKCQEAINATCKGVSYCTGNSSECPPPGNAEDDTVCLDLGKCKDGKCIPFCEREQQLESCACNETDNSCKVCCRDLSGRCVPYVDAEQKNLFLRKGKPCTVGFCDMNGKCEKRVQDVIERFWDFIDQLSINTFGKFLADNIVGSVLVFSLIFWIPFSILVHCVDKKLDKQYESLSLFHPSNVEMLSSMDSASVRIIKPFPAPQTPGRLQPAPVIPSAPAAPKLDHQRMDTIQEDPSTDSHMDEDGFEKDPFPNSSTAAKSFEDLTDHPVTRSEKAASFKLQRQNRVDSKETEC
Nature of the experiment: SEPARATE assay: human peptidome library digest with ADAM17. The experiment is classed as biochemical. The note with it: top 20 enriched peptides, human library (90-aa tiles); digest vs mock digest. On the procedure:
as §1, §2, §3, §4
Turning to B16, the “Adam17 Fold Change” value came out at 57.97 fold.

The values are drawn from US12091776B2, “Protease activity profiling via programmable phage display of comprehensive proteome-scale peptide libraries” (THE JOHNS HOPKINS UNIVERSITY, priority 2019, dated 2024).
